# Literature values, collected in PMC3877210.
# How the values were obtained:
# [1] = target: integrin β1 cytoplasmic tail (Homo sapiens) (UniProt P05556); test: pulldown
# [2] = target: integrin β2 cytoplasmic tail (Homo sapiens) (UniProt P05107); test: SPR
# [3] = target: integrin β3 cytoplasmic tail (Homo sapiens) (UniProt P05106); test: SPR
# [4] = target: integrin β3 cytoplasmic tail (Homo sapiens) (UniProt P05106); test: NMR
# Chain of UniProt P05106 (P05106 742-788): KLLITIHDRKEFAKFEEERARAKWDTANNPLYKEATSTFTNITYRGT
# Chain of UniProt P05556 (P05556 752-798): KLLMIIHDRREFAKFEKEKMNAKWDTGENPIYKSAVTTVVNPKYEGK
# Chain of UniProt P05107 (P05107 724-769): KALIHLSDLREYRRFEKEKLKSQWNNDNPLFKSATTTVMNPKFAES
Kd [1],Kd [2],Kd [3],Kd [4],Substance
67 nM,12.5 nM,91 nM,,talin F2-F3 F2-F3 (from UniProt Q9Y490)
,,,273000 nM,talin F3 F3 (from UniProt Q9Y490)
